Results taken from publication PMC12458081.

Molecular target: T1, Fkh1-DBD (Saccharomyces cerevisiae, UniProt P40466 299-421)
T1 sequence: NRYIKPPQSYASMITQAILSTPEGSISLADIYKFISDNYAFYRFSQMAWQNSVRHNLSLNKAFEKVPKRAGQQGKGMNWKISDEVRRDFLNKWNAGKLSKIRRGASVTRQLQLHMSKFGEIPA
Assay: X-ray crystallography

B1: 19-bp DNA binding oligo (dsDNA)
DNA 1: CGAAATGTAAACATACCGC
DNA 2: GCGGTATGTTTACATTTCG
B1: binds.
